Measurements taken from patent US20140193915, “COMPOSITIONS AND METHODS FOR CUSTOM SITE-SPECIFIC DNA RECOMBINASES” (Monsanto Technology, LLC, published 2014).

T1: pN-TALER IV-1-EE2 (GinL7C7-EE2-TALE13) (synthetic)
T1 chain: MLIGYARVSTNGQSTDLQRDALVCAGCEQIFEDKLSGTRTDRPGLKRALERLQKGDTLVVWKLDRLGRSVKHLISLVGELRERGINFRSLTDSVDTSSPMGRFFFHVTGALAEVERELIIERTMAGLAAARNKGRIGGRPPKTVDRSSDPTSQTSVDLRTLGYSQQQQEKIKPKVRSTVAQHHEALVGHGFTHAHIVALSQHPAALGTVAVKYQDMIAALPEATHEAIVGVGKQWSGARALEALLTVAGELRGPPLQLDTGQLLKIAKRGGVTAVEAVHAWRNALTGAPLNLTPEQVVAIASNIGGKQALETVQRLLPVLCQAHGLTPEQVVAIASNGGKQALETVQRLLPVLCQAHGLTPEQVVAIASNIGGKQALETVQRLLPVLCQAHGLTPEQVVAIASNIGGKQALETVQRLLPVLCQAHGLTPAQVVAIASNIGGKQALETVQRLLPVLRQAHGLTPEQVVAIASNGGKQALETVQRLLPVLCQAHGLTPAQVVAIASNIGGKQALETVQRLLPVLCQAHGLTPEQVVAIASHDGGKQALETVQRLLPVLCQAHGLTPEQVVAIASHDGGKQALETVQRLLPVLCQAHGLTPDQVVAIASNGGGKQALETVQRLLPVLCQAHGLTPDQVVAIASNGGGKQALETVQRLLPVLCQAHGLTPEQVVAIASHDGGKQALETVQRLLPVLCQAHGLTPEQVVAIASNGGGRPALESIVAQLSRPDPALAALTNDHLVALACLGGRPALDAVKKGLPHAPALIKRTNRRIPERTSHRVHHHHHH

T2: sN-TALER IV-1 (GinH106Y-TALE13) (synthetic)
T2 chain: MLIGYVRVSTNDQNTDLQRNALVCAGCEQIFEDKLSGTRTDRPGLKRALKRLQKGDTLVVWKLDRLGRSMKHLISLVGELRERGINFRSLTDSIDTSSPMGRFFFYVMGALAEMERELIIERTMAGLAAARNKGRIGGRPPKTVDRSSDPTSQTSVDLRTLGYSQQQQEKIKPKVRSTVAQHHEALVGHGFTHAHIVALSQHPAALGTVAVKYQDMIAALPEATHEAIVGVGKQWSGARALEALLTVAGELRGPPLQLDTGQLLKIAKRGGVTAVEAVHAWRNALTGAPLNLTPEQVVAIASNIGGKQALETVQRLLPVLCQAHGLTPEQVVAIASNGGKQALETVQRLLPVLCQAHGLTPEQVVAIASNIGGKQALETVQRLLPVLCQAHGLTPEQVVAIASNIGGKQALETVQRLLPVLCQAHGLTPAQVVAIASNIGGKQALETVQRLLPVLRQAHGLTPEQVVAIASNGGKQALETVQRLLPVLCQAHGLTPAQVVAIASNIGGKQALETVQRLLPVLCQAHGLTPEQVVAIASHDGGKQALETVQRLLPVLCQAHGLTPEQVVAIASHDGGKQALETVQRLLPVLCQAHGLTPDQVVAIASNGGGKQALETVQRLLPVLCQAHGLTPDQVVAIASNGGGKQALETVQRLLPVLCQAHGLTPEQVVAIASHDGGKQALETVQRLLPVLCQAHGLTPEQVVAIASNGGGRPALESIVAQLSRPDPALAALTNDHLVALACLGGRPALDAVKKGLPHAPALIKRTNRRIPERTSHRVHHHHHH

T3: sN-TALER IV-2 (GinH106Y-TALE13) (synthetic)
T3 chain: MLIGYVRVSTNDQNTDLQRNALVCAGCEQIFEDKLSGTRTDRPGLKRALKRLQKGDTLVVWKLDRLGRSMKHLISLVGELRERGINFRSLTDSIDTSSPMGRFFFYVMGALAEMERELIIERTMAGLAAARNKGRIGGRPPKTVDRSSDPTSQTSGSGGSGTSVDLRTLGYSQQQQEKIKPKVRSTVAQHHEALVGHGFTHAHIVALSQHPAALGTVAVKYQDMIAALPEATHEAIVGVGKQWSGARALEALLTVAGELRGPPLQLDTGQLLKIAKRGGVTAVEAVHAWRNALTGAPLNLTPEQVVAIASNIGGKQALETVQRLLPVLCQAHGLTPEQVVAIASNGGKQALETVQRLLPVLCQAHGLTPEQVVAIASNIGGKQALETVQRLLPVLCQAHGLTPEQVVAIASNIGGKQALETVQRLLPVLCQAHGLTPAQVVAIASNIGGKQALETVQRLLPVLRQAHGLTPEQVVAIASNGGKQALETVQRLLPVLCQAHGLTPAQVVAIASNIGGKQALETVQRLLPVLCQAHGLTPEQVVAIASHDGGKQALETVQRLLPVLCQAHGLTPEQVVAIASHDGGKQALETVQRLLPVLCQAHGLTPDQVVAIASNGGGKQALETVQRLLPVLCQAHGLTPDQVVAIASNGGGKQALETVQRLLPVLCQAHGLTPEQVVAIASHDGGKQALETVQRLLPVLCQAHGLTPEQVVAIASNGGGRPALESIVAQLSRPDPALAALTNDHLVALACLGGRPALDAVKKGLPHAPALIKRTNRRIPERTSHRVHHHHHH

T4: sN-TALER IV-3 (synthetic)
T4 chain: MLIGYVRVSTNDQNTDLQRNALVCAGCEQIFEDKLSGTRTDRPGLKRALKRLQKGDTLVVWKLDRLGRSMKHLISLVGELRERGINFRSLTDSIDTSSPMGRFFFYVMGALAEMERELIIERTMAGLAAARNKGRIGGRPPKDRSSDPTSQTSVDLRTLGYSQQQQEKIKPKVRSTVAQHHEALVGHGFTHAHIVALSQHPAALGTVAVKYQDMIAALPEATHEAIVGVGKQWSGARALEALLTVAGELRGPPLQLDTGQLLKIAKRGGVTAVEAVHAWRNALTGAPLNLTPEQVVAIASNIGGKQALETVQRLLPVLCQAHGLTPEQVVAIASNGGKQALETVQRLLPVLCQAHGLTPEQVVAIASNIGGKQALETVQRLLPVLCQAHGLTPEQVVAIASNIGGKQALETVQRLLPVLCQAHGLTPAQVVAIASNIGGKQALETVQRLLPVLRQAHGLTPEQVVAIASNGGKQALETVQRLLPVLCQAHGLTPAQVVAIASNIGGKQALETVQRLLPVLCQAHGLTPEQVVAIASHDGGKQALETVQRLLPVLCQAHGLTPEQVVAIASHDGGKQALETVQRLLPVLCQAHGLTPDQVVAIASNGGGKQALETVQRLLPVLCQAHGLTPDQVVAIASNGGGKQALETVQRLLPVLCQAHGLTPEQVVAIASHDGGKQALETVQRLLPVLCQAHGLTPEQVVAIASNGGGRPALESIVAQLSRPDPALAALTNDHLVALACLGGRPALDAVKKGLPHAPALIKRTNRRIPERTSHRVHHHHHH

B1: R48 (dsDNA)
DNA 1: AGAAGGTATTTATATCCAAAACTATAGTTTACAGTATAAATACCTTCT
DNA 2: AGAAGGTATTTATACTGTAAACTATAGTTTTGGATATAAATACCTTCT
B2: R45 (12bp) (dsDNA)
DNA 1: AGAAGGTATTTATATCTCAAACCATGGTTTCACTTATAAATACCTTCT
DNA 2: AGAAGGTATTTATAAGTGAAACCATGGTTTGAGATATAAATACCTTCT
B3: R46 (10bp) (dsDNA)
DNA 1: AGAAGGTATTTATATCTCTAACCATGGTTACACTTATAAATACCTTCT
DNA 2: AGAAGGTATTTATAAGTGTAACCATGGTTAGAGATATAAATACCTTCT
B4: Gin20TALE+12 (dsDNA)
DNA 1: AGAAGGTATTTATATAGGCACACTTATCCAAAACCATGGTTTACAGGACCACACGGTATATAAATACCTTCT
DNA 2: AGAAGGTATTTATATACCGTGTGGTCCTGTAAACCATGGTTTTGGATAAGTGTGCCTATATAAATACCTTCT

Legend:
Experiment in all cases: cell_activity; E. coli
[1] = target: T1, pN-TALER IV-1-EE2 (GinL7C7-EE2-TALE13); conditions: tags: 6-His
Description: (§1) To determine how much of the Gin20 sequence is required for recombination when the central sequence is maintained at a permitted length, N-TALER reporters were generated with a 20 bp recombinase central sequence between the TALE binding sites, where either the central 12 bp, or the central 10 bp, or the central 8 bp of the recombinase core sequence were held constant, and the remaining nucleotides were different from the Gin sequence. The N-TALER reporter with 12 bp was designated R45, the N-TALER reporter with 10 bp was designated R46, and the N-TALER reporter with 8 bp was designated R47. A N-TALER reporter with a 10 bp site 1 and a 12 bp site 2 was designated R46B, and a N-TALER reporter with a T and an A flanking the central AT di-nucleotide was designated R48 (see Table 33). The various reporters, including the pSC101 Gin20TALE13+0 were co-transformed with either sN-TALER-IV-1 or pN-TALER-IV-1 and recombination, as determined by colony color, was scored (Table 33). For purposes of comparison, the GinE site that was used in the generation of the GinL7C7-EE2 recombinase domain (Gersbach et al., 2010) was also included.
(§2) To confirm that white colonies resulted from recombination, the colonies were analyzed by colony PCR and sequencing of the PCR product. For the reporter that retained 12 bp from the Gin site, 8 of 8 colonies analyzed had the predicted recombination product for both the sN-TALER-IV-1 chimera and the pN-TALER-IV-1chimera (16 colonies total analyzed, 8 each). Likewise, for the reporter that retained 8 bp from the Gin site co-transformed with the pN-TALER-IV-1 chimera, 14 of 14 colonies analyzed had the predicted recombination product.

[2] = target: T2, sN-TALER IV-1 (GinH106Y-TALE13); conditions: tags: 6-His; chain copies: 2 per site, tetramer in synapsis (stated)
Description: as §1, §2

[3] = target: T3, sN-TALER IV-2 (GinH106Y-TALE13); conditions: tags: 6-His
Description: (§3) To test for recombination, E. coli DH5alpha cells were co-transformed with different combinations of TALER expression construct and TALER reporter construct pairs (Tables 6 and 7). The N-TALER expression and reporter constructs were in an approximate 1:1 mass ratio during the transformation. The co-transformed bacteria were plated on media with chloramphenicol, kanamycin, and X-gal then incubated at 37° C. for 18 to 36 hours. Control samples consisted of transformations using the reporter construct alone. Control transformants were similarly plated. The bacterial transformation protocol was either heat shock or electroporation per standard molecular biology techniques.

[4] = target: T2, sN-TALER IV-1 (GinH106Y-TALE13); conditions: tags: 6-His; chain copies: 2 per site, tetramer in synapsis (stated)
Description: as §3

sN-TALER IV-3 = target: T4, sN-TALER IV-3; conditions: tags: 6-His
Description: as §3

[5] = target: T1, pN-TALER IV-1-EE2 (GinL7C7-EE2-TALE13); conditions: tags: 6-His
Description: as §3
Two additional N-TALERs, based on N-TALER IV-1, were constructed wherein the GinH106Y recombinase catalytic domain was replaced with either the GinL7C7-EE2 catalytic domain or the GinL7C7-EE3 permissive recombinase catalytic domain. These N-TALERs were labeled pN-TALER IV-1-EE2 (SEQ ID NO:41) and pN-TALER IV-1-EE3 (SEQ ID NO:45), respectively. pN-TALER IV-1-EE2 was tested in combination with seventeen N-TALER reporter constructs and pN-TALER IV-1-EE3 was tested with three reporter constructs (Table 10).

| Binder | activity [1] [score] | activity [2] [score] | activity [3] [score] | activity [4] [score] | activity (sN-TALER IV-3) [score] | activity [5] [score] |
| --- | --- | --- | --- | --- | --- | --- |
| B1 | 1.5 | 4.5 |  |  |  |  |
| B2 | 1 | 1.5 |  |  |  |  |
| B3 | 1.5 | 4.5 |  |  |  |  |
| B4 |  |  | 1 | 2 | 1 | 2 |
